# Patent publication CN113480644A
# Biological target: SARS-CoV-2 S蛋白 (on virus particles) (SARS-CoV-2) (UniProt P0DTC2)
# Assay: cell-based or functional assay
substance,measurement,value
REGN10987 (antibody),"中和效率(IC 50), 假病毒中和 (MLV pseudovirus, ACE2-HEK293)",0.162 µg/mL
